Data published in patent US20100215651A1 (GLENMARK PHARMACEUTICALS S A, published 2010).
Changes are numbered by the printed parent chain. In names and notes the source's numbering stands.

B1: VH16-Q6E/VL43-V3Q/T7S (antibody, human IgG1, name in Kabat numbering, V domains shown)
VH: QVQLVESGGGVVQPGRSLRLSCAASGVSLPDYGVSWVRQAPGKGLEWVAVIWGSETTYYNSALKSRFTISRDNSKNTLYLQMNSLRAEDTAVYYCARHYYYGGSYAMDYWGQGTLVTVSS
VL: DIQMTQSPSSLSASVGDRVTITCRASQDISKYLNWYQQKPGKAPKLLIYHTSRLHSGVPSRFSGSGSGTDFTLTISSLQPEDFATYYCQQGNTLPYTFGPGTKVDIKR
notes: substitutions in Kabat numbering
B2: VH16/VL43-V3Q/T7S (antibody, human IgG1, V domains shown)
VH: B1 VH with E6Q
VL: B1 VL
notes: as for B1
B3: VH16-R94K/VL43-V3Q/T7S (antibody, human IgG1)
heavy: not shown
VL: DIQMTQSPSSLSASVGDRVTITCRASQDISKYLNWYQQKPGKAPKLLIYHTSRLHSGVPSRFSGSGSGTDFTLTISSLQPEDFATYYCQQGNTLPYTFGPGTKVDIKRTVAA
notes: Full-length human IgG1/kappa; substitutions in Kabat numbering
B4: VH16 R94K VL43 N92A (antibody, human IgG1)
heavy: not shown
VL: B3 VL with Q3V, S7T, N92A
notes: as for B3
B5: VH16 R94K VL43 T93A (antibody, human IgG1, V domains shown)
VH: B1 VH with E6Q, R97K
VL: B1 VL with Q3V, S7T, T93A
notes: as for B3
B6: VH16 R94K VL43 T93V (antibody, human IgG1, V domains shown)
VH: B1 VH with E6Q, R97K
VL: B1 VL with Q3V, S7T, T93V
notes: Full-length human IgG1/kappa; substitutions in Kabat numbering; also called VK16 R94K VL43 T93V
B7: VH20/VL44 (antibody, human IgG1, V domains shown)
VH: B1 VH with E6Q, V11L, R16G, A23V, A49S, S74A, T77S
VL: B1 VL with Q3V, L11M, V15I, K45N, D70E, P100Q, V104L, D105E
B8: VH5VL40 (antibody, V domains shown)
VH: EVQLVESGGGLVKPGGSLRLSCAASGVSLPDYGVSWIRQAPGKGLEWVSVIWGSETTYYNSALKSRFTISRDNAKNSLYLQMDSLRVEDTAVYYCAGHYYYGGSYAMDYWGQGTLVTVSS
VL: B1 VL with Q3V, S7T, A43V, K45N, D70E, P100G, D105E
B9: VH5VL39 (antibody, V domains shown)
VH: B8 VH
VL: B1 VL with Q3V, S10T, D70E, E81D, P100Q, D105E
B10: VH20/VL43 (antibody, human IgG1, V domains shown)
VH: B1 VH with E6Q, V11L, R16G, A23V, A49S, S74A, T77S
VL: B1 VL with Q3V, S7T
B11: VH20/VL40 (antibody, human IgG1, V domains shown)
VH: B1 VH with E6Q, V11L, R16G, A23V, A49S, S74A, T77S
VL: B1 VL with Q3V, S7T, A43V, K45N, D70E, P100G, D105E

Target: T1, human CD19 (human, UniProt P15391 20-556)
T1 construct: CD19 as expressed on Raji, NALM-6 and SU-DHL-6 cells; also called CD19 antigen; B-cell surface antigen B4
T1 sequence: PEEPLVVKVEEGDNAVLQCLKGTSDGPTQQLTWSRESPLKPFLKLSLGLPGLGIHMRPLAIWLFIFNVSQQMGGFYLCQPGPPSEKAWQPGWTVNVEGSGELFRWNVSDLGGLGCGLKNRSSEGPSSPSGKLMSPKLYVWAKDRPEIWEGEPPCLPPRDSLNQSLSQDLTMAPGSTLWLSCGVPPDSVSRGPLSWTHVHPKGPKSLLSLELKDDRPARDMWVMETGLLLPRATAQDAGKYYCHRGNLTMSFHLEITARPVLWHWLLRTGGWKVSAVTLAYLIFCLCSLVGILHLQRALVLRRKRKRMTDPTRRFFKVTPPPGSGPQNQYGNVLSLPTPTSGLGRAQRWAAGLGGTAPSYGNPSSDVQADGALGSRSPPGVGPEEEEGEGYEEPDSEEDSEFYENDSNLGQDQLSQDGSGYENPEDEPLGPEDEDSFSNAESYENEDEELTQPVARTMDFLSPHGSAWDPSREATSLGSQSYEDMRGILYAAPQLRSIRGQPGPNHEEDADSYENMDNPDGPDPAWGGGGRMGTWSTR
Experiment: flow cytometry, Raji cells, MPF vs chimeric FMC63
Protocol: (§1) Binding of the CD19 humanized monoclonal antibodies by flow cytometry to Raji tumor cells (human Burkitt lymphoma, DSMZ ACC319), NALM-6 (human B cell precursor leukemia, DSMZ ACC128) and SU-DHL-6 (human B cell lymphoma, DSMZ ACC572) (all cell lines from DSMZ Braunschweig, Deutschland) was assessed. Cells were incubated with serial dilutions of each humanized monoclonal antibody. An irrelevant human IgG1 was used as a negative control. The cells were washed and detected by a phycoerythrin-labeled (PE) anti-human secondary antibody (eBioscience, CA, USA) and analyzed by flow cytometry. […] From MFI versus antibody concentration curves, Mid-Point Fluorescence (MPF) value for each anti-CD19 humanized antibody was calculated using the software GraphPad Prism 5 (CA, USA).

Which “relative MPF (% of chimeric FMC63)” value does the source give for B1 here?
The value was 5.68%.

For B2, which “relative MPF (% of chimeric FMC63)” value is on record?
The value was 4.93%.

How did the “relative MPF (% of chimeric FMC63)” value turn out when B3 was run?
The value was 27.8%.

Target: T1, human CD19
Experiment: flow cytometry, Raji cells, MPF vs chimeric FMC63
Remark: another data set of the same source
Protocol: as §1

With B4 as the binder, how does the “relative MPF (% of chimeric FMC63)” value read?
The value was 25.9%.

For B5, which “relative MPF (% of chimeric FMC63)” value is on record?
The value was 34.1%.

For B6, which “relative MPF (% of chimeric FMC63)” value is on record?
The value was 17.4%.

Target: T1, human CD19
Experiment: flow cytometry on Raji cells, PE-labelled anti-human secondary antibody, MFI against antibody concentration
Protocol: These immunoglobulins were assessed for antigen-binding affinity by half-maximal binding assays on B-cell lymphoma cell-lines (FACS) and compared to a chimeric version of FMC63 (this was to standardized level of staining from the anti-human Fc PE-labeled detection-antibody, as described in Example 2).
as §1

Does B7 bind?
Result: binds

Does B8 bind?
Result: no binding (tested: about 10 ug/ml (Log(ug/ml) about 1))

Does B9 bind?
Result: no binding (tested: about 10 ug/ml (Log(ug/ml) about 1))

Does B10 bind?
Result: binds

Does B11 bind?
Result: binds
